Source: US9273304B2, “Inactivation method” (Thermo Fisher Scientific Baltics UAB, priority 2006, dated 2016)

Tests used:
Taq DNA polymerase [1] = molecular target: T1, Taq DNA polymerase (Thermus aquaticus, UniProt P19821); assay: 5′-3′ exonuclease activity: cleavage of 5′-labelled oligonucleotide duplexes at 37° C.; format: biochemical; conditions: 4 hours, with or without dNTPs, FIG. 9, part B
Procedure: The exonuclease activity was determined using the following labeled complementary oligonucleotides: [SEQ ID NO: 3] 5′-[…]-3′ and [SEQ ID NO: 4] 5′-[…]-3′. Equal amounts (10 units) of the unmodified enzyme and the modified enzyme were incubated with the oligonucleotide duplexes for 4 hours at 37° C. in 10 μl of reaction buffer. Activity of the unmodified Taq DNA polymerase was tested in the following buffer: 75 mM Tris-HCl (pH 8.8 at 25° C.), 20 mM (NH4)SO4, 0.01% Tween20, and 2 mM MgCl2, while the buffer composition to test the modified Taq DNA polymerase was the following: 20 mM Tris-HCl (pH 8.3 at 25° C.), 20 mM KCl, 5 mM (NH4)SO4, and 2 mM MgCl2. Both reaction mixtures were tested either in the presence or in the absence of dNTPs.
Reactions were terminated by addition of 5 μl of a “stop” solution (95% (v/v) formamide and 0.01% bromophenol blue). After heating at 95° C. for 2 minutes, the samples were cooled in ice, and then they were loaded onto 15% denaturing acrylamide gel (29:1 acrylamide/bisacrylamide). Electrophoresis was performed in 89 mM Tris-borate (pH8.3 at 37° C.) supplemented with 2 mM EDTA for one hour at ˜50 V/cm. After electrophoresis, the gels were fixed in 10% acetic acid and dried. The gels were analyzed using Cyclone Storage Phosphor System and OptiQuant™ Image Analysis Software.

Taq DNA polymerase [2] = molecular target: T1, Taq DNA polymerase; assay: Temperature effect on activity of modified versus unmodified Taq DNA polymerase; format: biochemical; conditions: FIG. 7
Procedure: The activity assay for both DNA polymerases was as described in the Example 2 with the following modifications: • 1. DNA polymerization using the unmodified DNA polymerase was carried out in the buffer of the following composition: 10 mM Tris-HCl (pH 8.8 at 25° C.), 50 mM KCl, 1.5 mM MgCl2, and 0.08% Nonidet P40. • 2. DNA polymerization using the modified DNA polymerase was carried out in the buffer of the following composition: 20 mM Tris-HCl (pH 8.3 at 25° C.), 20 mM KCl, 5 mM (NH4)2SO4, and 1.5 mM MgCl2.
Enzyme activities at different temperatures were normalized to the activity of the unmodified Taq DNA polymerase at 70° C.

T1 sequence (P19821 whole entry): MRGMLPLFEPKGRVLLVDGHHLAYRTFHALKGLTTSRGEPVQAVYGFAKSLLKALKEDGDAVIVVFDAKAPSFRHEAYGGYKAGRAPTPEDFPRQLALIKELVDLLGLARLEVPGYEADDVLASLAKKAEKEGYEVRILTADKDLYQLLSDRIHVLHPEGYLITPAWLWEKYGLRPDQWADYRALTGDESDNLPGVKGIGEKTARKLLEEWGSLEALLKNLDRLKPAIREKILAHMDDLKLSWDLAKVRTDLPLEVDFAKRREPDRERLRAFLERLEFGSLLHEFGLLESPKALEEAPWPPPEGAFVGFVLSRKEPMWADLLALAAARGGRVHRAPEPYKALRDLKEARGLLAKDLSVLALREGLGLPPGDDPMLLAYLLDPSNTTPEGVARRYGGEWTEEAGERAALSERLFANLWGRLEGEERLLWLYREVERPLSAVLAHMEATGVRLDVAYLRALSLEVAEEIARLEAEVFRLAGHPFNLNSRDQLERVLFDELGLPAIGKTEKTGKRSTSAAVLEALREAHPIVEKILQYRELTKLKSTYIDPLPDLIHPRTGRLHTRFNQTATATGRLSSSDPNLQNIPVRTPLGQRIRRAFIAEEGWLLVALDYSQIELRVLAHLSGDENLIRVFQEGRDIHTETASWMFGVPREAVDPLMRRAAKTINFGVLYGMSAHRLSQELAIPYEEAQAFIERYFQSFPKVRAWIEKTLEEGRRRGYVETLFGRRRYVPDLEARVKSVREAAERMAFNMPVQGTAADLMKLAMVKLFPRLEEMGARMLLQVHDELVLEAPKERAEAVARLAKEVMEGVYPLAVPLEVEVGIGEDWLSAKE

“Taq DNA polymerase modified with N-etoxycarbonyl-2,3-dimethylmaleinimide: Recombinant Taq DNA polymerase reversibly inactivated by reaction with N-ethoxycarbonyl-2,3-dimethylmaleinimide in aqueous solution (preferred molar ratio 1/110)” was tested, and the “5′-3′ exonuclease activity” value (Taq DNA polymerase [1]) was “practically devoid of exonuclease activity”, the “residual activity at 70° C.” value (Taq DNA polymerase [2]; 70° C., normalized to unmodified Taq DNA polymerase at 70° C.) was ~20% and the “activity at different temperatures up to 50° C.” value (Taq DNA polymerase [2]; up to 50° C., without reactivation) was “practically inactive”.
